“Also recorded” adds a separate entry of the source.
Experiments:
ABCA1 [1] = target: T1, ABCA1 (Mus musculus, UniProt P41233); test: ABCA1-dependent cholesterol efflux from [3H]cholesterol-labeled J774 macrophages with and without cAMP; format: cell-based; conditions: J774, cAMP vs no cAMP; 10 μg/ml lipid-free
T1 construct: treated (18 h) with a cAMP analog to induce ABCA1 protein expression; endogenous in cells; host or cells: J774 macrophages

Wistar rats = test: High-dose IV toxicity of ATI-5261 in rats (plasma ALT, AST, TG, cholesterol); format: in vivo, rat
Experimental: Peptides or peptidomeimetics of the invention can be evaluated for toxicity using known assays. Examples of such assays are illustrated in the Examples section. Toxicity is typically assayed in a rat, rabbit, mouse, monkey or dog model. In an illustrative assay such as that described in Example 1, a peptide is administered intravenously using a rabbit or rat model at doses of 3, 30, and 300 mg/kg and vehicle alone is also administered at 48 hour intervals for a total of four injections. Safety chemistry panels including plasma alanine aminotransferase (ALT), aspartate amino transferase (AST), and creatine kinase (CK) can then be determined in the blood. The presence of elevated levels of these enzymes in the blood compared to control normal values is indicative of toxicity. A peptide of the invention is typically considered to be non-toxic or to have little toxicity, when the results using the highest dose, 300 mg/kg in this illustrative assay, are equivalent (fall within the standard deviation) of the values measured for the control animals that received vehicle alone, or are no more than 2 or 3 times background obtained with vehicle alone. In some embodiments, a toxicity assay is performed where the toxicity of a peptide of the invention is compared to that to ATI-5261. […]
Cytotoxicity of an HDL mimetic peptide ATI-5261 at high doses was evaluated in rats and rabbits (FIG. 1). […]

C57Bl/6 mice = format: in vivo; conditions: 300 mg/kg IP, male chow-fed C57Bl/6 mice
Experimental: The high-dose cytotoxic response of ATI-5261 observed in rat, rabbit and cynomolgus monkey is additionally recapitulated in mice (FIG. 4). Male chow-fed C57bl/6 mice were injected intraperitonelly (IP) with 30 or 300 mg/kg of lipid-fee ATI-5261. Blood was collected via the retro-orbital plexus 4 h after peptide injection and plasma subsequently obtained for measurement of CPK (Panel A) and ALT and AST activities (Panel B, ALT left bars, AST, right bars). Values are means±SD, n=4 mice per group.
This example illustrates that aromatic phenylalanine residues associated with the non-polar surface of ATI-5261 contributed to the majority of the peptide toxicity (FIG. 5). […] Blood was collected via retro-orbital plexus 4 h after injection for isolation of plasma. Levels of plasma CPK (Panel A), ALT (panel B) and AST (Panel C) were determined as described in FIG. 1. Values are means±SD, n=4 mice per group.
The concentrations of plasma lipids in C57Bl/6 mice following administration of the aliphatic analogs of ATI-5261 was also determined. […] All values (mg/dl) are means±SD, n=4, determined at 4 and 6 h post treatment with peptide.

ABCA1 [2] = target: T1, ABCA1; test: ABCA1-dependent cholesterol efflux from [3H]cholesterol-labeled J774 macrophages with and without cAMP; format: cell-based; conditions: cAMP treated J774, dose response, 4 h
Excerpt: Suitable cholesterol efflux assays are described in, e.g., Bielicki, J. K and Oda, M. N., Biochemistry, 41:2089-2096 (2002); Jia et al., Biochem. Biophys. Res. Common., 297:206-213 (2002). In some embodiments, a polypeptide known to mediate cholesterol efflux (e.g., helix 9/10 of Apo A-I) is used to screen for additional mediators of cholesterol efflux in a cell based assay. For example, cell lines in which cholesterol efflux can be enhanced using a cAMP analog that up-regulates ABCA1 protein expression (e.g., J774 macrophages) can conveniently be used to assess the ability of a polypeptide of the present invention to mediate cholesterol efflux. The cells are incubated with labeled cholesterol (e.g., [^3H]cholesterol) under conditions appropriate for cholesterol uptake by the cells. Thus, cAMP or cAMP analogs (e.g., CPT-cAMP) are incubated with the cells for a suitable time before the initiation of cellular cholesterol efflux, i.e., prior to contacting the cells with a test polypeptide. Measurement of labeled cholesterol appearing in the medium is used to determine the cholesterol efflux mediating activity of the test polypeptide.
Aliphatic analogs of ATI-5261 lacking phenylalanine residues retained potent ABCA1 selective cholesterol efflux activity (FIG. 7). J774 macrophages were labeled (48 h) with [^3H]cholesterol and treated (18 h) with a cAMP analog to induce ABCA1 protein expression; cells incubated in the absence of cAMP (left bars) served as controls. […] Peptides were used at a concentration of 30 μg/ml, which was maximal for promoting cholesterol efflux activity. Panel B—Dependence of cholesterol efflux on the concentration of peptides. […] Results are expressed as the difference in cholesterol efflux (%/4 h) observed using cAMP treated vs. non-treated J774 cells. Values are means±SD, n=3.

T1 sequence (P41233 whole entry): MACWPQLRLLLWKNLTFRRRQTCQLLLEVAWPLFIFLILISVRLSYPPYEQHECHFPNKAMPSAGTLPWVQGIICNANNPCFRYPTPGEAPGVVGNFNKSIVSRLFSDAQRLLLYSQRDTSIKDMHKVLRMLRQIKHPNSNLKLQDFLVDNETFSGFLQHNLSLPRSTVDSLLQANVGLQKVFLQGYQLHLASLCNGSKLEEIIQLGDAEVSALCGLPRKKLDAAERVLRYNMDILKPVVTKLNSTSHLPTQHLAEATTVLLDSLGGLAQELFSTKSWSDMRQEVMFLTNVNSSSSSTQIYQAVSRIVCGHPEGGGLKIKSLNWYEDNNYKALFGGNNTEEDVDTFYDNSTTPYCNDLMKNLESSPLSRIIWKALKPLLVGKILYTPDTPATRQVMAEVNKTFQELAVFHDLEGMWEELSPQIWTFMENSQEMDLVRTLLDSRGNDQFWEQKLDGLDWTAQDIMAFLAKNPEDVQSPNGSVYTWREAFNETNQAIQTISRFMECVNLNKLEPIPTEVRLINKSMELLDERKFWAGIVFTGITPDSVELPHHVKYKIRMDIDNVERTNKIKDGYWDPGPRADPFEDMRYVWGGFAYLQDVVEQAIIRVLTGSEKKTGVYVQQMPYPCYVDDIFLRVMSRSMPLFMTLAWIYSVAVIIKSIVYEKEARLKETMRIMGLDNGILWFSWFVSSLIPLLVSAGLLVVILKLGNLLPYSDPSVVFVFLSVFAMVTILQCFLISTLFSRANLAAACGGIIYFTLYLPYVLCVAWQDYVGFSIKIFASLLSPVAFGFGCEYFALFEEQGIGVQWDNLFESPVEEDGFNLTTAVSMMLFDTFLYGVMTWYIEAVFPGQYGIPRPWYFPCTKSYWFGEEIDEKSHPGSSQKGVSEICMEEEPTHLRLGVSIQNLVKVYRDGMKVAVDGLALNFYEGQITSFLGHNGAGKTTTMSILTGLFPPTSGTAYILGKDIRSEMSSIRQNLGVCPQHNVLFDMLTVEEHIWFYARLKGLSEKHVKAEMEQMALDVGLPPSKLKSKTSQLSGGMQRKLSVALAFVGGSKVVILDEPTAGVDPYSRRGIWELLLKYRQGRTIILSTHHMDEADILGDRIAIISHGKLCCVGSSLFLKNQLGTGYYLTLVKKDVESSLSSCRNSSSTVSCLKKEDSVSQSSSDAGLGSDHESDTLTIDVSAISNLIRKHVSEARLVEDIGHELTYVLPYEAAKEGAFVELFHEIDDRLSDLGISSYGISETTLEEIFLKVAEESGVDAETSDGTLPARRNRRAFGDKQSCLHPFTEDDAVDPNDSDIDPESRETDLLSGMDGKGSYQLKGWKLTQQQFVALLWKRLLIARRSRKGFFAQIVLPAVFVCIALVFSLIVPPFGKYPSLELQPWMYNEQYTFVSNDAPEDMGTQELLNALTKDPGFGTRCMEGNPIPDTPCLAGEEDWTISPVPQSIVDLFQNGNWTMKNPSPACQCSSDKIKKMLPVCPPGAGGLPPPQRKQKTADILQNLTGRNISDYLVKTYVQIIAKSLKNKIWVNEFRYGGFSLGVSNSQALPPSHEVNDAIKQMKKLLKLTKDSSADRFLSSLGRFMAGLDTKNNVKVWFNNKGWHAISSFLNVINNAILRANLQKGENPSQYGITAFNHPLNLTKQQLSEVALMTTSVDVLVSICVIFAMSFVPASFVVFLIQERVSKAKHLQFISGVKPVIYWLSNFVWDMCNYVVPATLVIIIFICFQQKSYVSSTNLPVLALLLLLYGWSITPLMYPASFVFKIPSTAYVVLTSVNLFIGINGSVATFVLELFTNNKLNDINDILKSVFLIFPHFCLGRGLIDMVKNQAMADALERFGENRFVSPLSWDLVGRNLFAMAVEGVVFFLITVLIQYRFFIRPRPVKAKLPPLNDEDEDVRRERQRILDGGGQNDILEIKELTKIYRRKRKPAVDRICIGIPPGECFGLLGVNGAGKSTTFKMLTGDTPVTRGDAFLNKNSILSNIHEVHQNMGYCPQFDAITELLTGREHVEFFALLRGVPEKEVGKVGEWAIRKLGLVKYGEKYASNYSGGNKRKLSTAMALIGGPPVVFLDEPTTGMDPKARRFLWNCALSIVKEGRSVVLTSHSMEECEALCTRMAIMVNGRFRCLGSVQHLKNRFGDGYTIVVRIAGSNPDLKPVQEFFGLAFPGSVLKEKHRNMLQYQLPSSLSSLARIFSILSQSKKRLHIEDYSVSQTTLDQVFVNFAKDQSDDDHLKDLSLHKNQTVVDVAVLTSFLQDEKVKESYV

## ATI-5261: HDL mimetic peptide, parent peptide with phenylalanine and arginine residues; toxic at high doses; used as positive control (EVRSKLEEWFAAFREFAEEFLARLKS)
ABCA1 [1]
  ABCA1-dependent cholesterol efflux activity: stimulated an overall greater efflux response; also recorded: stimulated a greater efflux response
Wistar rats; IV
  plasma triglycerides and unesterified cholesterol: increased plasma triglycerides and cholesterol
Wistar rats; IV 3, 30, 300 mg/kg at 48 h intervals, 4 injections
  cytotoxic response (plasma ALT, AST): induced a cytotoxic response
C57Bl/6 mice; 4 and 6 h
  TG elevating effect (plasma TG, cholesterol): marked increase in plasma TG, total and unesterified (free) cholesterol (FC)
C57Bl/6 mice; 4 h
  cytotoxic/toxic response (plasma CPK, ALT, AST): High levels of cytotoxic markers
ABCA1 [2]
  peptide concentration at saturation of cholesterol efflux: roughly 3 μg/ml

Source: patent US11434267B2, “Peptides having reduced toxicity that stimulate cholesterol efflux” (The Regents of the University of California, priority 2013, dated 2022)
